Data on two molecules can be found in US12098206B2, “PDGF receptor antibody and use thereof” (Seoul National University R&DB Foundation, priority 2018, dated 2024).

The subject of one data set is NIH3T3 cells. Kind of data set: cells. The format is cell-based, mouse. As for the experimental part:
NIH3T3 cells were added to 50 μL of DMEM supplemented with 10% FBS and 1% penicillin/streptomycin, placed in a 96-well plate (CLS3595, Corning) and incubated overnight in 5% CO2 at 37° C. incubator. In each well containing 50 μL of cells, 50 μL of 50 anti-PDGFR-β x cotinine scFv-Cκ-scFv fusion protein (25.6 pM-2 μM) complexed with cot-duo or cot-duo-cot obtained in Experimental Example 10 was added and incubated for 72 hours in 5% CO2 at 37° C. incubator. To test mPDGF-BB on the toxic effect of the bispecific antibody of scFv-Cκ-scFv and the cotinine-duocarmycin complex, mPDGF-BB (2 nM) was added together with 50 μL of the bispecific antibody scFv-Cκ-scFv and the cotinine-duocarmycin complex. The mixed complexes were added to 50 μL of NIH3T3 cells.
The bispecific antibody of anti-HER2 x cotinine scFv-Cκ-scFv was used as a control. After 72 hours of incubation in the cells, 100 μL of Cell Titer-Glo reagents (Promega Corp., Madison, WI, USA) were added to all wells according to the manufacturer's instructions, and luminescence was measured in a luminometer (PerkinElmer, Waltham, MA, USA). The experiment was repeated 3 times. Relative viability was calculated with the following formula: [% viability=(luminescence of experimental well-luminescence of background well)/(luminescence of control-luminescence of background well)×100]. The wells containing only new medium were used as background wells.
To evaluate the toxicity of the complex of anti-mPDGFR-B x cotinine scFv-Cκ-scFv bispecific antibodies and cotinine duocarmycin (cot-duo, cot-duo-cot), the complexes were added to NIH3T3 cells in the presence/absence of mPDGF-BB. The ATP of the cells was measured for relative cell viability. The toxicity of the bispecific antibody of scFv-Cκ-scFv fusion antibody was shown by IC50 in Table 6 and FIG. 5.
It was carried out in the same manner as in Example 7, except that the bispecific antibody related with the anti-mPDGFR-β antibody and the bispecific antibody related with the anti-hPDGFR-β antibody prepared in Example 10 were used. FIG. 20a to FIG. 20b are graphs showing the difference in cytotoxic activity of PRb-CN01 and PRb-CN32 bispecific antibodies and cotinine-duocarmycin complexes in the cells expressing PDGFR-β. In FIG. 20b, an experiment was repeated in the presence of mPDGF-BB.

The target of a further data set is T1, mPDGFR-β and cotinine (Mus musculus, UniProt P05622).
T1 construct: mPDGFR-β
T1 sequence (P05622 32-530): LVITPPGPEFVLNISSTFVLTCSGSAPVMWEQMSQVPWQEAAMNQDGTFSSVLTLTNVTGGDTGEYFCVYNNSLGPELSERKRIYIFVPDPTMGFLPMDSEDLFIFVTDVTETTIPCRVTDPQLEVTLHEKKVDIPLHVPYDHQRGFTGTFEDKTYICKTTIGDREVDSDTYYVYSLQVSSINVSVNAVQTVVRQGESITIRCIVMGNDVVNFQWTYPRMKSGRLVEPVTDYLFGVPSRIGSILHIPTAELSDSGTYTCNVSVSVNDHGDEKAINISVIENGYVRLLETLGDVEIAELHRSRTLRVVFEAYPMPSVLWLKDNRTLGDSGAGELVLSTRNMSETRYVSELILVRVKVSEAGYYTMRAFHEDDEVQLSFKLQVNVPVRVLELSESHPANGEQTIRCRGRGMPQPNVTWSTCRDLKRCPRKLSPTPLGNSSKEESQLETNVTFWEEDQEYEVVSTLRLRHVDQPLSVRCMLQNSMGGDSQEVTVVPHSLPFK
Kind of data set: Enzyme immunoassay, simultaneous binding to cotinine and mPDGFR-β. As to conditions: cotinine-BSA coated wells, then mPDGFR-β-Fc chimera; FIG. 3d. The protocol:
In order to confirm whether the bispecific antibody has simultaneous binding ability to both cotinine and mPDGFR-β, anti-mPDGFR-β x cotinine scFv-Cκ-scFv fusion protein was reacted in wells coated with cotinine-BSA. Washing was performed for each process, and mPDGFR-β-Fc chimeric protein and HRP-anti human Fc antibody were sequentially incubated.

For the next data set, the target named is T2, mPDGFR-β (Mus musculus, UniProt P05622).
T2 construct: mPDGFR-β
T2 sequence (P05622 32-530): T1 sequence (P05622 32-530)
Kind of data set: Competition enzyme immunoassay against PRb-CN01-rabbit Fc on mPDGFR-β-hFc. The format is binding. Particulars: competitor bispecific scFv-Cκ-scFv 100 nM; FIG. 19a. As for the experimental part: It was carried out in substantially the same manner as the enzyme immunoassay method for antibody binding ability of Example 3, except that mPDGFR-β-hFc chimeric protein was coated with O/N on a microtiter plate at a temperature of 4° C. After incubating the blocking agent in each well, various concentrations of PRb-CN01-rabbit Fc (0.01 nM-1 μM) and PRb-CN01, control anti-HER2 antibody, and PRb-CN32 bispecific scFv-Cκ-scFv (100 nM) diluted in 3% BSA/PBS were reacted in each well at 37° C. for 2 hours. After washing the plate three times with PBST, the HRP-anti rabbit Fc antibody was reacted at 37° C. for 1 hour, and after washing, the reaction was performed using ABTS. Then, the absorbance was measured at 405 nm with a Multiscan Ascent microplate device (Labsystems, Helsinki, Finland) (FIG. 19A). FIG. 19a is the result of confirming the competition for the PRb-CN01 surrogate antibody.

Data set [1] addresses T3, NIH3T3 cells expressing mPDGFR-β (Mus musculus, UniProt P05622).
T3 construct: host or cells: NIH3T3
Kind of data set: Flow cytometry competition against PRb-CN01-rabbit Fc on NIH3T3 cells. The data set is classed as binding. Particulars: PRb-CN01-rabbit Fc 50 nM, competitor 1 μM, FIG. 19b. As for the experimental part:
According to the same manner as in Example 5, PRb-CN01-rabbit Fc (50 nM) and PRb-CN01, control antibody, PRb-CN32 bispecific antibody scFv-Cκ-scFv (1 μM) were cultured on NIH3T3 cells for 1 hour. After washing, it was reacted with FITC-anti rabbit Fc antibody (172-1506, KPL, Gaithersburg, Maryland, USA) at 4° C. for 1 hour. After washing, it was classified and analyzed with a FACS Canto II instrument (BD Biosciences, San Jose, CA, USA). 10,000 cells were identified for each measurement. The results were analyzed by FlowJo (Tree Star, Ashland, OR, USA) (FIG. 19b).

T3 sequence (P05622 32-1098): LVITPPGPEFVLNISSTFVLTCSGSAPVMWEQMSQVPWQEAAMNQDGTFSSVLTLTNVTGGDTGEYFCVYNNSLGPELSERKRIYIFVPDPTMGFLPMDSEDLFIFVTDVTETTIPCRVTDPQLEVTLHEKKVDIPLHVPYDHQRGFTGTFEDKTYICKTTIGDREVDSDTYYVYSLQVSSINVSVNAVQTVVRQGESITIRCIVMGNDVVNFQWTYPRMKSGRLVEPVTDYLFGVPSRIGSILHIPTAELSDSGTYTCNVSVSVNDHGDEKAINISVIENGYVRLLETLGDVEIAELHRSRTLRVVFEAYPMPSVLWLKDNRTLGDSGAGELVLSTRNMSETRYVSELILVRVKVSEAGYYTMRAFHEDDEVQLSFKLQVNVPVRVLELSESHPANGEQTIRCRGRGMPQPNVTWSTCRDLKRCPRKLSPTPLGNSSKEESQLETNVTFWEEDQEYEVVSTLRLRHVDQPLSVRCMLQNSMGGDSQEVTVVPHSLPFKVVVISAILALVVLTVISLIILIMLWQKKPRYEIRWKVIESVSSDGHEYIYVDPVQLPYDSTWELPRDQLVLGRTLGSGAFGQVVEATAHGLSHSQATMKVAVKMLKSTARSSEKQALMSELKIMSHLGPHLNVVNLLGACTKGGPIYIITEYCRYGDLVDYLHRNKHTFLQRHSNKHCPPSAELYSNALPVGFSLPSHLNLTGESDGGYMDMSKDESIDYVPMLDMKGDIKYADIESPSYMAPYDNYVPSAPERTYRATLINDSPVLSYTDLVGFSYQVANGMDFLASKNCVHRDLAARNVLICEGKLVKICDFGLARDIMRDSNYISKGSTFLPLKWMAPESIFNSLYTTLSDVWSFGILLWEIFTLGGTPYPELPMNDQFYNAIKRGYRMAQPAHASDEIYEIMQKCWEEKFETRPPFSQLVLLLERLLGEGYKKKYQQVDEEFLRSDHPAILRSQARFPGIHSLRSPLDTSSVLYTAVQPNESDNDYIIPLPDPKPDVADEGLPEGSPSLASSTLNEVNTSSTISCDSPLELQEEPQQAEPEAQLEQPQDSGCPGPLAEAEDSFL

B1: PRb-CN01: anti-mPDGFR-β chicken scFv clone (VH SEQ ID NO 7, VL SEQ ID NO 8), tested as scFv-Cκ-anti-cotinine scFv bispecific antibody (antibody, V domains shown)
VH: AVTLDESGGGLQTPGGALSLVCKASGFTFSDRAMHWVRQAPGKGLEWVGLITNTGGSTNYGAAVKGRATISRDNGQSTVRLQLNNLRAEDTGTYYCTRGVGSWAHGGRIDAWGHGTEVIVSS
VL: LTQPSSVSANPGETVKITCSGGSGSYGWFQQKSPGSAPVTVIYSNNQRPSDIPSRFSGSKSGSTNTLTITGVQAEDEAIYYCGTRDSSYVGIFGAGTTLTVL
modifications: VH of PRb-CN01; VL of PRb-CN01
As to B1, in the data set on NIH3T3 cells, the “cytotoxicity of complex with cotinine-duocarmycin, PRb-CN01 versus PRb-CN32” value is given as “equivalent cytotoxicity regardless of the presence/absence of mPDGF-BB”. Further, the “toxicity with the addition of mPDGF-BB” value in the data set with NIH3T3 cells (complex with cot-duo or cot-duo-cot, NIH3T3, FIG. 5) is reported as “also high with the addition of mPDGF-BB”. Moreover, in the data set on NIH3T3 cells (complex with cotinine-duocarmycin, NIH3T3, with or without mPDGF-BB, FIG. 5), the “toxicity compared to control anti-HER2 x cotinine scFv-Cκ-scFv” value is recorded as “highest toxicity”. Further, the “toxicity compared to free duocarmycin” value with NIH3T3 cells (cotinine-duocarmycin complexed with antibody, in the presence of mPDGF-BB, p<0.01) is “significantly more toxic than free duocarmycin”. Also, the “simultaneous binding to mPDGFR-β and cotinine” value with mPDGFR-β and cotinine is “simultaneously bound to mPDGFR-β and cotinine”. Further, in the data set with mPDGFR-β, the “inhibition of binding of PRb-CN01-rabbit Fc to mPDGFR-β-hFc chimeric protein” value is “inhibited”. Further, in data set [1], the “inhibition of binding of PRb-CN01-rabbit Fc to mPDGFR-β on the cell surface” value was “inhibited”.

B2: PRb-CN32: anti-hPDGFR-β scFv clone (VH SEQ ID NO 47, VL SEQ ID NO 48), tested as scFv-Cκ-anti-cotinine scFv bispecific antibody (antibody, V domains shown)
VH: AVTLDESGGGLQTPRGTLSLVCKASGFTFSSFNMFWVRQAPGKGLEFVAGISTTGRYTGYGSAVQGRGTISRDNGQSTVRLQLNNLRAEDTGTYYCAKSAGSTYSYWDSDAGLIDAWGHGTEVIVSSTS
VL: LTQPSSVSANLGETVKITCSGGSNAGSYYYGWYQQKSPGSAPVTVIYSNNQRPSDIPSRFSGSTSGSTSTLTITGVQVDDEAVYFCGSGDSSSIAAFGAGTTLTVL
modifications: VH of PRb-CN32; VL of PRb-CN32
On to B2, for which, in the data set on NIH3T3 cells, the “cytotoxicity of complex with cotinine-duocarmycin, PRb-CN01 versus PRb-CN32” value is reported as “equivalent cytotoxicity regardless of the presence/absence of mPDGF-BB”. In the data set with mPDGFR-β, the “inhibition of binding of PRb-CN01-rabbit Fc to mPDGFR-β-hFc chimeric protein” value is “inhibited”. The “inhibition of binding of PRb-CN01-rabbit Fc to mPDGFR-β on the cell surface” value in data set [1] was “inhibited”.
